Values of other authors in patent US20250034272A1, “COMPOSITIONS AND METHODS FOR TREATING SEVERE ASTHMA” (Equillium, Inc., priority 2018, published 2025).

Tested on: Th1/Th17 type T cells
Settings: stated as known ability

B1: EQ001: humanized anti-CD6 monoclonal antibody, VH/VK SEQ ID NOS: 1 and 2; itolizumab produced in CHO cells (antibody, V domains shown)
VH: EVQLVESGGGLVKPGGSLKLSCAASGFKFSRYAMSWVRQAPGKRLEWVATISSGGSYIYYPDSVKGRFTISRDNVKNTLYLQMSSLRSEDTAMYYCARRDYDLDYFDSWGQGTLVTVSS
VL: DIQMTQSPSSLSASVGDRVTITCKASRDIRSYLTWYQQKPGKAPKTLIYYATSLADGVPSRFSGSGSGQDYSLTISSLESDDTATYYCLQHGESPFTLGSGTKLEIK
modifications: humanized T1h VH sequence; humanized T1h VL sequence
notes: itolizumab produced in CHO cells
inhibition of activation and migration of Th1/Th17 type T cells: inhibit activation and migration
